pKd: −log10 of the molar value.

The assay concerns the target EGFR extracellular domain (with an amino acid sequence of 25-645) (human) (UniProt P00533). In words: SPR, Biacore T200; EGFR extracellular domain on CM5 chip, rLZ-8 protein as analyte. A general note: Surface plasmon resonance follows binding to a sensor surface in real time, without labels.

Take “rLZ-8 (D20H/E68K) (from UniProt P14945 1-111)”: the pKd (commonly −log10 of the Kd, conventionally taken in molar units) was 8.19.

Values taken from patent US12077566.
